According to the supplement of paper PMC9732359:
± gives the uncertainty stated by the source.

Experiment: protein stability index of a GFP-peptide fusion (yeast GPS) (PSI 1-4); higher = more stable; sorted into four equal gates, so the index is relative within each strain
How it was run: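 Sequencing reads from sorted gates were used to score each peptide. The library consisted of tiled 17-residue yeast protein peptides fused downstream of GFP on a Cherry-expressing plasmid, pooled and carried in yeast. Mid-log cultures in leucine-free medium were split into four equal gates by GFP/Cherry ratio, and each gate's plasmids were PCR-amplified and Illumina-sequenced. The protein stability index adds up, over all gates, the read frequency multiplied by the gate number.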

Row | Sequence | protein stability index (doa10∆) | protein stability index (pdr5∆) | protein stability index (san1∆) | protein stability index (ubr1∆)
1 | SLEDKILRMGAFRTIES [RRI1] | 2.24 ± 0.17 | 2.04 ± 0.2 | 1.83 ± 0.18 | 2.28 ± 0.073
2 | SIRRQDYINELSNSNRF [REC8] | 2.82 ± 0.17 | 3.21 ± 0.12 | 3.4 ± 0.092 | 3.2 ± 0.12
3 | LKFAVQVDKVTKEKVNG [RPL26A] | 3.23 ± 0.21 | 3.4 ± 0.16 | 2.71 ± 0.11 | 3.01 ± 0.069
4 | ITKVTENLFSKEEVCQG [YMR129W/POM152] | 2.95 ± 0.085 | 2.77 ± 0.092 | 2.97 ± 0.074 | 3.06 ± 0.082
5 | IEEIEYNVKNIIQGRKN [PCI8] | 2.38 ± 0.059 | 2.18 ± 0.052 | 2.39 ± 0.095 | 1.76 ± 0.042
6 | NKTLTFETETEVTFKNA [FAS1] | 3.15 ± 0.078 | 3.23 ± 0.093 | 3.28 ± 0.084 | 3.35 ± 0.049
7 | NRTLYELADLPKLKRIG [GRR1] | 2.88 ± 0.049 | 2.87 ± 0.037 | 2.8 ± 0.042 | 3.02 ± 0.042
8 | YEIRDIDQDIHGIVFQH [SSN2] | 2.5 ± 0.049 | 2.6 ± 0.056 | 2.72 ± 0.051 | 2.75 ± 0.033
9 | GLAPDARVLSNYLRQQC [PRE5] | 2.72 ± 0.19 | 2.11 ± 0.21 |  | 1.47 ± 0.28
10 | EIDHQEYSPEILQIREE [RRP6] | 3.19 ± 0.067 | 3.06 ± 0.069 | 3.21 ± 0.094 | 3.18 ± 0.048
11 | LKFNSTEYRGTLVSTDN [SMX3] | 1.74 ± 0.04 | 2.59 ± 0.049 | 2.27 ± 0.067 | 2.25 ± 0.041
12 | EIEQNTELLDEFIAAVN [RPN10] | 3.36 ± 0.082 | 3.32 ± 0.11 | 2.79 ± 0.099 | 3.16 ± 0.082
13 | EIIADWIWDMNVHGSLE [BRR2] | 1.89 ± 0.1 | 2.43 ± 0.095 | 2.88 ± 0.085 | 2.18 ± 0.054
14 | AYSPKQDEQKHNENENS [RPO21] | 2.65 ± 0.065 | 2.49 ± 0.072 | 2.57 ± 0.09 | 2.68 ± 0.061
15 | DKQYRTAVATLLKELSK [SMC3] | 2.49 ± 0.082 | 2.13 ± 0.084 | 3.06 ± 0.061 | 2.72 ± 0.071
16 | VEQDEGQCRTELEGSFN [YCS4] | 3.38 ± 0.081 | 3.48 ± 0.098 | 3.12 ± 0.14 | 3.49 ± 0.067
17 | NYGSSLQWHAMIELICS [AAR2] | 1.31 ± 0.13 | 1.22 ± 0.13 | 1.1 ± 0.16 | 1.34 ± 0.15
18 | SKKDPRILKNVSPNDNN [YMR153W/NUP53] | 2.65 ± 0.069 | 2.36 ± 0.045 | 2.42 ± 0.054 | 2.47 ± 0.034
19 | FSQEALQYVVERVGKRT [FAS1] | 1.07 ± 0.091 | 1.24 ± 0.11 |  | 1.17 ± 0.09
20 | SNGEFIPHIFYSLHQIR [CSE2] | 2.02 ± 0.07 | 2.1 ± 0.054 | 2.12 ± 0.072 | 2.34 ± 0.057
21 | FWSFLDSLIFKDSSLNY [YJL039C/NUP192] | 3.22 ± 0.076 | 2.74 ± 0.078 | 2.11 ± 0.15 | 2.46 ± 0.079
22 | EQHHINNLKNSGNSANN [GAL11] | 2.41 ± 0.14 | 2.09 ± 0.088 | 2.39 ± 0.1 | 2.32 ± 0.13
23 | SSQFVRLASEPGIISIT [YMR129W/POM152] | 2.04 ± 0.094 | 2.14 ± 0.062 | 1.99 ± 0.12 | 1.78 ± 0.04
24 | IPAAGNNRSVSMQTIAE [SRB5] | 3.09 ± 0.078 | 3.12 ± 0.087 | 3.22 ± 0.081 | 3.3 ± 0.07
25 | KENKKRKNFKMGPLYQN [IRR1] | 1.33 ± 0.046 | 1.99 ± 0.08 | 2.05 ± 0.078 | 2.13 ± 0.059
26 | IGFITSGTYHLNCGNGM [POP1] | 2.56 ± 0.1 | 2.93 ± 0.082 | 2.09 ± 0.093 | 2.92 ± 0.048
27 | PYSKNAVEQLAGCKIDN [YDL088C/ASM4] | 2.58 ± 0.089 | 2.6 ± 0.089 | 2.41 ± 0.092 | 2.56 ± 0.047

Row | Sequence | protein stability index (doa10∆) | protein stability index (pdr5∆) | protein stability index (san1∆) | protein stability index (ubr1∆)
28 | KVSSAEYYAKKRAFTKK [RPL16A] | 3 ± 0.098 | 3.32 ± 0.099 | 2.98 ± 0.092 | 3.36 ± 0.082
29 | INKYESSPSHIELVVTE [RPL17A] | 2.08 ± 0.045 | 2.56 ± 0.051 | 2.05 ± 0.067 | 2.17 ± 0.036
30 | VFLKHSLSIKLATLHYQ [RPN6] | 2.22 ± 0.059 | 2.57 ± 0.067 | 1.71 ± 0.11 | 3.08 ± 0.055
31 | DKLSGCYAPRPSAGPHK [RPS4A] | 2.2 ± 0.065 | 1.96 ± 0.063 | 1.76 ± 0.099 | 1.64 ± 0.041
32 | IDLLLLGQERATDLAGP [PRP8] | 2.47 ± 0.047 | 2.58 ± 0.083 | 2.34 ± 0.087 | 2.29 ± 0.05
33 | VPFESLQGVTYPVLRKL [YIL149C/MLP2] | 2.82 ± 0.11 | 2.56 ± 0.075 | 2.32 ± 0.12 | 2.27 ± 0.068
34 | EVKEQLGILKKKRFDEF [SMC4] |  | 2.68 ± 0.22 | 2.35 ± 0.23 | 3.03 ± 0.12
35 | KLEEESKRGNDKKHFNN [RPC53] | 3.34 ± 0.098 | 3.15 ± 0.094 | 3.17 ± 0.094 | 3.28 ± 0.08
36 | ELEQLSSEALEAARICA [RPL10] | 1.21 ± 0.071 | 1.35 ± 0.059 | 1.33 ± 0.14 | 1.12 ± 0.06
37 | VVEEFTPVVLATPIPEE [RPS5] | 2.69 ± 0.13 | 2.27 ± 0.069 | 2.13 ± 0.056 | 2.17 ± 0.049
38 | QHQSLSRSSSKNVNIED [ESC2] | 2.83 ± 0.18 | 2.69 ± 0.11 | 2.32 ± 0.11 | 3.04 ± 0.084
39 | SVTVSQGNYVTEDIREG [YMR129W/POM152] | 2.82 ± 0.061 | 2.91 ± 0.064 | 2.87 ± 0.061 | 2.85 ± 0.05
40 | HSRILPKKALKVKAGVR [RRP43] | 1.73 ± 0.046 | 1.63 ± 0.054 | 1.57 ± 0.082 | 1.6 ± 0.032
41 | YYDRKEELKNMFLYILK [RRI2] | 2.16 ± 0.22 | 1.95 ± 0.13 | 1.27 ± 0.11 | 1.52 ± 0.1
42 | EDRNESVNIAFAISMGY [ECM29] | 3.02 ± 0.12 | 2.89 ± 0.074 | 2.88 ± 0.055 | 2.82 ± 0.07
43 | SGITDPYEMYKYVHVSE [FAS2] | 2.33 ± 0.072 | 2.63 ± 0.074 | 2.48 ± 0.07 | 2.4 ± 0.069
44 | DNMSEEQWLRQFEVSDD [SNF2] | 3.46 ± 0.099 | 3.22 ± 0.094 | 3.16 ± 0.12 | 3.36 ± 0.079
45 | IASMSTVRASSLQDLIY [SMC2] | 1.92 ± 0.069 | 2.33 ± 0.1 | 2.53 ± 0.092 | 2.25 ± 0.037
46 | NANEISANTNNTCTIST [SWP82] | 2.61 ± 0.041 | 2.61 ± 0.045 | 2.9 ± 0.04 | 2.62 ± 0.031
47 | NSIESKNLSLQTGTKPV [COR1] | 2.72 ± 0.06 | 2.84 ± 0.053 | 2.95 ± 0.045 | 2.85 ± 0.042
48 | STRLKKACKTADKLVNV [SRP68] | 3.38 ± 0.081 | 3.26 ± 0.073 | 2.98 ± 0.074 | 3.18 ± 0.052
49 | STMTEPVKQSFIRKYIN [GAL11] | 2.56 ± 0.082 | 2.2 ± 0.065 | 1.96 ± 0.092 | 2.47 ± 0.053
50 | NEDQFLEEITQYEHLIK [YDL116W/NUP84] |  | 3.02 ± 0.27 |  | 
51 | IGVETGSEPLIQQVVEY [PRP28] | 2.99 ± 0.065 | 3.08 ± 0.084 | 2.95 ± 0.067 | 2.73 ± 0.16
52 | KDEEIEKLLQQDREITN [MED8] | 3.26 ± 0.13 | 3.12 ± 0.13 | 3.06 ± 0.24 | 3.59 ± 0.14
53 | YTKETYQSRGIDAMKAV [RPN6] | 2.59 ± 0.069 | 2.86 ± 0.072 | 2.83 ± 0.064 | 2.39 ± 0.047
